The text below walks through data of US20190031781A1.

Assay [1] deals with carboxymethyl lysine conjugated to keyhole limpet hemocyanin (CML-KLH). The experiment in a line: direct binding ELISA, CML-KLH coat 1 ug/mL, antibody at 50 ug/mL. A general note: ELISA stands for enzyme-linked immunosorbent assay.
Assay [2] has the same target. Briefly: direct binding ELISA, CML-KLH coat 1 ug/mL, antibody at 0.07 ug/mL.
Assay [3] shares this target. The experiment in a line: direct binding ELISA, CML-KLH coat 1 ug/mL, antibody at 0.21 ug/mL.
Assay [4] shares this target. Briefly: direct binding ELISA, CML-KLH coat 1 ug/mL, antibody at 0.62 ug/mL.
Assay [5] has the same target. The experiment in a line: direct binding ELISA, CML-KLH coat 1 ug/mL, antibody at 1.85 ug/mL.
Assay [6] shares this target. The experiment in a line: direct binding ELISA, CML-KLH coat 1 ug/mL, antibody at 5.56 ug/mL.
Assay [7] has the same target. Briefly: direct binding ELISA, CML-KLH coat 1 ug/mL, antibody at 16.67 ug/mL.

Consider “carboxymethyl lysine MAb (Clone 318003), R&D Systems, catalog no. MAB3247 (antibody)”, for which the OD450 in assay [1] came out at 0.462; in assay [2] it was 0.086; in assay [3], 0.075; in assay [4], 0.083; in assay [5] it was 0.092; in assay [6] it was 0.165. For the same substance, the OD450 in assay [7] is 0.312.
